# Reference: PMC10599462, “Molecular basis of sulfolactate synthesis by sulfolactaldehyde dehydrogenase from Rhizobium leguminosarum” (Chemical Science, 2023)
# Like-named read-outs stand apart in the source and are kept apart here.
# T1: RlGabD (SLA dehydrogenase) (Rhizobium leguminosarum, UniProt A0AAJ6N661)
# T1 sequence (A0AAJ6N661 1-489): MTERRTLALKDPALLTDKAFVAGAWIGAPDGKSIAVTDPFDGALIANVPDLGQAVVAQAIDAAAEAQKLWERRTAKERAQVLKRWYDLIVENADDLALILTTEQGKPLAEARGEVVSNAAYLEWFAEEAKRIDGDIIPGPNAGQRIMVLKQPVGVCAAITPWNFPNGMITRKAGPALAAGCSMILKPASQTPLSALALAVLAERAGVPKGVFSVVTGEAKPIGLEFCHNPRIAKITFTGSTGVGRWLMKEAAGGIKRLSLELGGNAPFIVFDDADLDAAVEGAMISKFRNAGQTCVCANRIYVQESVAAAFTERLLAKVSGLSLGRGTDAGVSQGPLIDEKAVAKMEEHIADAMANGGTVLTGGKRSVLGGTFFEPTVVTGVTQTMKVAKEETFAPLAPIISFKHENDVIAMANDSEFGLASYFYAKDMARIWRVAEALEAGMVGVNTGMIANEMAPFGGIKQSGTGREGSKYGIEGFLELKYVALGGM
# B1: RlGabD (SLA dehydrogenase) (Rhizobium leguminosarum bv. trifolii SRDI565) (protein)
# chain: T1 sequence (A0AAJ6N661 1-489)
# notes: recombinant RlGabD
# Key:
# [1] = target: T1, RlGabD (SLA dehydrogenase); experiment: biochemical; set-up: gene EV132_10158; recombinant RlGabD; nanoDSF thermal shift (F350/F330 intrinsic fluorescence) of recombinant RlGabD with ligand; details: nanoDSF, average of 2 replicates; read-out: ∆Tm (Avg)
# [2] = target: T1, RlGabD (SLA dehydrogenase); experiment: biochemical; set-up: gene EV132_10158; recombinant RlGabD; nanoDSF thermal shift (F350/F330 intrinsic fluorescence) of recombinant RlGabD with ligand; details: nanoDSF, average of 2 replicates; read-out: ∆Tm (Avg); remark: listed apart in the source
# [3] = target: T1, RlGabD (SLA dehydrogenase); experiment: cryo-EM structure of binary complex at […] Å; type: binding; set-up: gene EV132_10158; recombinant RlGabD tetramer
# [4] = target: SLA dehydrogenase RlGabD from Rhizobium leguminosarum SRDI565 (Rhizobium leguminosarum bv. trifolii SRDI565); experiment: SEC-MALS; SEC-MALLS of RlGabD in solution; homotetramer
# [5] = target: T1, RlGabD (SLA dehydrogenase); experiment: enzyme inhibition assay with constant SLA and NAD+; type: biochemical; set-up: gene EV132_10158; recombinant RlGabD
# [6] = substrate: NC(=O)c1ccc[n+]([C@@H]2O[C@H](COP(=O)([O-])OP(=O)(O)OC[C@H]3O[C@@H](n4cnc5c(N)ncnc54)[C@H](OP(=O)(O)O)[C@@H]3O)[C@@H](O)[C@H]2O)c1; experiment: purified protein; details: […]′-phosphate binding residues Ser179 and Lys182 (E. coli SSADH numbering) conserved; varied: cofactor
# [7] = substrate: O=CC(O)COP(=O)(O)O; experiment: purified protein; details: NADP+
# [8] = substrate: NC(=O)c1ccc[n+]([C@@H]2O[C@H](COP(=O)([O-])OP(=O)(O)OC[C@H]3O[C@@H](n4cnc5c(N)ncnc54)[C@H](O)[C@@H]3O)[C@@H](O)[C@H]2O)c1; experiment: purified protein; type: biochemical, Rhizobium leguminosarum; details: binds first to enzyme (rapid equilibrium ordered mechanism); varied: cofactor
# [9] = substrate: O=CC(O)CS(=O)(=O)O; experiment: purified protein; type: biochemical, Rhizobium leguminosarum; details: NAD+ proposed: Cys295 nucleophile, Glu261 general base, Asn163 oxyanion hole, Arg171/Arg289 sulfonate binding
molecule,measurement,setting,value
NC(=O)C1=CN([C@@H]2O[C@H](COP(=O)(O)OP(=O)(O)OC[C@H]3O[C@@H](n4cnc5c(N)ncnc54)[C@H](OP(=O)(O)O)[C@@H]3O)[C@@H](O)[C@H]2O)C=CC1 [NADPH],ΔTm at 10000 µM,[1],2.5 °C
NC(=O)c1ccc[n+]([C@@H]2O[C@H](COP(=O)([O-])OP(=O)(O)OC[C@H]3O[C@@H](n4cnc5c(N)ncnc54)[C@H](O)[C@@H]3O)[C@@H](O)[C@H]2O)c1 [NAD^+],ΔTm at 10000 µM,[2],4.3 °C
NC(=O)c1ccc[n+]([C@@H]2O[C@H](COP(=O)([O-])OP(=O)(O)OC[C@H]3O[C@@H](n4cnc5c(N)ncnc54)[C@H](OP(=O)(O)O)[C@@H]3O)[C@@H](O)[C@H]2O)c1 [NADP^+],ΔTm at 10000 µM,[2],3.5 °C
NC(=O)C1=CN([C@@H]2O[C@H](COP(=O)(O)OP(=O)(O)OC[C@H]3O[C@@H](n4cnc5c(N)ncnc54)[C@H](O)[C@@H]3O)[C@@H](O)[C@H]2O)C=CC1 [NADH],ΔTm at 10000 µM,[2],1.5 °C
same,cryo-EM structure of binary complex at 2.52 Å,[3],The RlGabD·NADH complex shows the binding mode and positioning of the cofactor.
SLA dehydrogenase RlGabD from Rhizobium leguminosarum SRDI565 (enzyme),stoichiometry N,[4],4
NC(=O)C1=CN([C@@H]2O[C@H](COP(=O)(O)OP(=O)(O)OC[C@H]3O[C@@H](n4cnc5c(N)ncnc54)[C@H](O)[C@@H]3O)[C@@H](O)[C@H]2O)CCC1 [tetrahydro-NADH],IC50,[5],28 µM
B1,Km,[6],17 ± 4.1 µM
same,kcat,[6],4.1 s⁻¹
same,kcat/Km,[6],240000 M⁻¹ s⁻¹
same,Km,[7],170 ± 28 µM
same,kcat,[7],3 s⁻¹
same,kcat/Km,[7],10500 M⁻¹ s⁻¹
same,Km,[8],81 ± 19 µM
same,kcat,[8],17.7 ± 3.2 s⁻¹
same,kcat/Km,[8],210000 ± 63000 M⁻¹ s⁻¹
same,Km,[9],130 ± 40 µM
same,kcat,[9],17.8 ± 7 s⁻¹
same,kcat/Km,[9],137000 ± 72000 M⁻¹ s⁻¹
